Test results published in patent publication US20110250207A1 (OREGON HEALTH AND SCIENCE UNIVERSITY, published 2011).

Legend:
[1] = molecular target: fXI with Lys^83 and Gln^84 replaced with alanine, P03951
[2] = molecular target: T1, cow fXI (cattle, UniProt Q5NTB3 19-625); test: immunoprecipitation from plasma with 14E11 beads, western blot with biotinylated 14E11
T1 construct: mature; Endogenous protein immunoprecipitated from plasma; also called cattle fXI

[3] = molecular target: T2, murine factor XI (murine, UniProt Q91Y47 19-624); test: immunoblot of recombinant proteins with 14E11 (FIG. 10A)
T2 construct: also called murine fXI (M); recombinant murine fXI

B1: activated factor XII (protein)
chain: IPPWEAPKEHKYKAEEHTVVLTVTGEPCHFPFQYHRQLYHKCTHKGRPGPQPWCATTPNFDQDQRWGYCLEPKKVKDHCSKHSPCQKGGTCVNMPSGPHCLCPQHLTGNHCQKEKCFEPQLLRFFHKNEIWYRTEQAAVARCQCKGPDAHCQRLASQACRTNPCLHGGRCLEVEGHRLCHCPVGYTGAFCDVDTKASCYDGRGLSYRGLARTTLSGAPCQPWASEATYRNVTAEQARNWGLGGHAFCRNPDNDIRPWCFVLNRDRLSWEYCDLAQCQTPTQAAPPTPVSPRLHVPLMPAQPAPPKPQPTTRTPPQSQTPGALPAKREQPPSLTRNGPLSCGQRLRKSLSSMTRVVGGLVALRGAHPYIAALYWGHSFCAGSLIAPCWVLTAAHCLQDRPAPEDLTVVLGQERRNHSCEPCQTLAVRSYRLHEAFSPVSYQHDLALLRLQEDADGSCALLSPYVQPVCLPSGAARPSETTLCQVAGWGHQFEGAEEYASFLQEAQVPFLSLERCSAPDVHGSSILPGMLCAGFLEGGTDACQGDSGGPLVCEDQAAERRLTLQGIISWGSGCGDRNKPGVYTDVAYYLAWIREHTVS
For B1, the “rate of activation in solution relative to fXI^WT” value [1] was “about 65% of the rate of fXI^WT” and the “specific activity in a contact activation initiated clotting assay relative to fXI^WT” value [1] was 100-150% of the specific activity of fXI^WT.

B2: monoclonal antibody 14E11 (antibody, V domains shown)
VH: QVQLEESGPGLVAPSQSLSITCTVSGFSLTGYGIYWVRQPPGKGLEWLGMIWGDGRTDYNSALKSRLSISKDNSKSQVFLKMNSLQTDDTARYYCARDYYGSKDYWGQGTTLTVSS
VL: DIVMTQSHKFMSTSVGDRVSITCKASQDVSTAVAWYQQKPGQSPKLLIYLTSYRNTGVPDRFTGSGSGTDFTFTISSVQAEDLAVYYCQQHYKTPYSFGGGTKLERLR
notes: also called anti-murine fXI IgG 14E11; anti-fXI IgG 14E11
B2: binds [2]; binds [3].
